According to article PMC6555848 (2019):

Legend:
His-tagged ABL1 kinase [1] = target: T1, His-tagged ABL1 kinase (UniProt P00519 1-1130); test: SPR; two-state model, kd1
His-tagged ABL1 kinase [2] = target: T1, His-tagged ABL1 kinase; test: SPR; two-state model

T1 sequence (P00519 whole entry): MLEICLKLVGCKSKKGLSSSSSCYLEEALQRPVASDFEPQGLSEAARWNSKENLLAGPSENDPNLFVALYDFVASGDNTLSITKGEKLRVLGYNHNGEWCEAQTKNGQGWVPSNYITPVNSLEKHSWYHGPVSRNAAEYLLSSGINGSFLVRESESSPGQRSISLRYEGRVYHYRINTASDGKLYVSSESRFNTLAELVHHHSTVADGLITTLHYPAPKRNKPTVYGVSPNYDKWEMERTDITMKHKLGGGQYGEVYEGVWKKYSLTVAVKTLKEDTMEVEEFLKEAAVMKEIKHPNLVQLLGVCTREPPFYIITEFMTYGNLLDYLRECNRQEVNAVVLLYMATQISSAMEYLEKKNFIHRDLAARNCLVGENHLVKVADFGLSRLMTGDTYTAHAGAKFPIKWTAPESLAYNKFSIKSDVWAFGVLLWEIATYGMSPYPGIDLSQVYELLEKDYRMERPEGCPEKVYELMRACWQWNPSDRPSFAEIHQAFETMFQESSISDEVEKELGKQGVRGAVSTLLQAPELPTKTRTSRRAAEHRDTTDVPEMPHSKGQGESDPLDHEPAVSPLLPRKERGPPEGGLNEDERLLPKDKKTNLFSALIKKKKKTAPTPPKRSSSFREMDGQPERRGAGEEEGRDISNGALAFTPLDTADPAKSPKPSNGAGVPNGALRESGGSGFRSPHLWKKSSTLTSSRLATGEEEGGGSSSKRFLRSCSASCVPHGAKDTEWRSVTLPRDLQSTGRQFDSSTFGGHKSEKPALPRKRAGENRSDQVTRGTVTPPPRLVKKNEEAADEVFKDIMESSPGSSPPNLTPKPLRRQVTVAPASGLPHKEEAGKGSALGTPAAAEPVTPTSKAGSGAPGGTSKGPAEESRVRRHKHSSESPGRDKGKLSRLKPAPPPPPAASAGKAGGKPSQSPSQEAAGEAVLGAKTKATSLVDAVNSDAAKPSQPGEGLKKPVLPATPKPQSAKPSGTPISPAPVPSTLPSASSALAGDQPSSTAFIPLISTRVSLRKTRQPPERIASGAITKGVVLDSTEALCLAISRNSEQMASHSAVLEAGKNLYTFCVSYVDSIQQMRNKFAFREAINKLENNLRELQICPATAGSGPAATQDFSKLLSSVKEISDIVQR

B1: full-length human STAT5B (M1-S787) (natural protein)
chain: MAVWIQAQQLQGEALHQMQALYGQHFPIEVRHYLSQWIESQAWDSVDLDNPQENIKATQLLEGLVQELQKKAEHQVGEDGFLLKIKLGHYATQLQNTYDRCPMELVRCIRHILYNEQRLVREANNGSSPAGSLADAMSQKHLQINQTFEELRLVTQDTENELKKLQQTQEYFIIQYQESLRIQAQFGPLAQLSPQERLSRETALQQKQVSLEAWLQREAQTLQQYRVELAEKHQKTLQLLRKQQTIILDDELIQWKRRQQLAGNGGPPEGSLDVLQSWCEKLAEIIWQNRQQIRRAEHLCQQLPIPGPVEEMLAEVNATITDIISALVTSTFIIEKQPPQVLKTQTKFAATVRLLVGGKLNVHMNPPQVKATIISEQQAKSLLKNENTRNDYSGEILNNCCVMEYHQATGTLSAHFRNMSLKRIKRSDRRGAESVTEEKFTILFESQFSVGGNELVFQVKTLSLPVVVIVHGSQDNNATATVLWDNAFAEPGRVPFAVPDKVLWPQLCEALNMKFKAEVQSNRGLTKENLVFLAQKLFNNSSSHLEDYSGLSVSWSQFNRENLPGRNYTFWQWFDGVMEVLKKHLKPHWNDGAILGFVNKQQAHDLLINKPDGTFLLRFSDSEIGGITIAWKFDSQERMFWNLMPFTTRDFSIRSLADRLGDLNYLIYVFPDRPKDEVYSKYYTPVPCESATAKAVDGYVKPQIKQVVPEFVNASADAGGGSATYMDQAPSPAVCPQAHYNMYPQNPDSVLDTDGDFDLEDTMDVARRVEELLGRPMDSQWIPHAQS
koff (His-tagged ABL1 kinase [1]): 93.9 s⁻¹
Kd (His-tagged ABL1 kinase [2]): 280 nM
